This is an account of results in patent publication US20250388664A1 (BIOARCTIC, published 2025).

For assay [1], the target named is T1, h/m apical domain chimera (SEQ ID NO:112) (human/mouse chimera).
T1 construct: also called chimeric TfR1 consisting of human apical domain grafted on mouse TfR1 ectodomain
T1 chain: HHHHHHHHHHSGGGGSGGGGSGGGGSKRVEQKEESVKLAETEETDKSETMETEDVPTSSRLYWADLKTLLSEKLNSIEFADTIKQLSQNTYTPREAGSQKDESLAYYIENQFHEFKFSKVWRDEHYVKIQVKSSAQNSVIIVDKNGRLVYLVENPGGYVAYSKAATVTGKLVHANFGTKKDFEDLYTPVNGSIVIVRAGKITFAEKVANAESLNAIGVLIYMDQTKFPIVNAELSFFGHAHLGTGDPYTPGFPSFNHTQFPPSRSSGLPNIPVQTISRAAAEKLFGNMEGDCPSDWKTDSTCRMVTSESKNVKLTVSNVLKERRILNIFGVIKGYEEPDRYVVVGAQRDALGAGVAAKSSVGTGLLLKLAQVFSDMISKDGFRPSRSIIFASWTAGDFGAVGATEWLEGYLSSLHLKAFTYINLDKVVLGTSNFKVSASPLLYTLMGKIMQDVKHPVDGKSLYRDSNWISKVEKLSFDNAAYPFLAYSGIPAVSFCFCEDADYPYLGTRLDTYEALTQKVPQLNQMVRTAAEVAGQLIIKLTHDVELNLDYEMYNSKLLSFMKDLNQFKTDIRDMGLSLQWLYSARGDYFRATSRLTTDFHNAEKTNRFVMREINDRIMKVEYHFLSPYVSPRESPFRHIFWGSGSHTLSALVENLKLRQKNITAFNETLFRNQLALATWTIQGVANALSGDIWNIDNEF
Description: indirect ELISA: plate coated with 1 µg/ml h/m apical domain chimera, mouse IgG titrated, anti-mouse IgG-HRP; x axis printed as 'TfR (ng/ml)'. On the procedure: Plasma samples serially diluted from a starting dilution of 1/450 or hybridoma supernatants diluted 1/2 were added to the plates (50 μl/well; dilution buffer: PBS with 0.1% BSA and 0.05% TWEEN®-20) and incubated for 2 h at room temperature and then the plates were washed four times. […] After another wash (as above), 50 μl/well TMB substrate (K-Blue® Aqueous, Neogen) was added, and the reaction was stopped after 10-15 min with 50 μl/well of 0.5 M H₂SO₄. The optical density at 450 nm was read using a plate reader (Tecan). The endpoint titers were defined as the dilution above the average of the blank wells (background) plus 3 standard deviations of the blank wells.
(§1) In the ELISA experiment, human, mouse or three different chimeric TfR1 receptors were used to coat ELISA plates (FIGS. 30A-30E). The ELISA protocol was slightly modified as follows from the indirect ELISA described in Example 15. […] The coated plates were then blocked. Dilution series of mouse IgG of the analyzed antibodies were prepared in PBS and incubated on the ELISA plates. Unbound antibodies were then washed off before incubating wells with a HRP-conjugated secondary, anti-mouse-IgG for 1 h. Plates were then washed again before addition of HRP substrate TMB for development and detection of antibody binding to the wells. TMB development was stopped by adding 0.5 M H₂SO₄ to the wells and ELISA responses measured as the OD at 450 nm in an ELISA plate reader.
A general note: In an ELISA, binding on a coated surface is turned into a signal by an enzyme label.

Assay [2] addresses T2, h/m helical domain chimera (SEQ ID NO:113) (human/mouse chimera, UniProt Q62351 90-763 (mouse entry)).
T2 construct: also called chimeric TfR1 consisting of human helical domain grafted on mouse TfR1 ectodomain
T2 chain: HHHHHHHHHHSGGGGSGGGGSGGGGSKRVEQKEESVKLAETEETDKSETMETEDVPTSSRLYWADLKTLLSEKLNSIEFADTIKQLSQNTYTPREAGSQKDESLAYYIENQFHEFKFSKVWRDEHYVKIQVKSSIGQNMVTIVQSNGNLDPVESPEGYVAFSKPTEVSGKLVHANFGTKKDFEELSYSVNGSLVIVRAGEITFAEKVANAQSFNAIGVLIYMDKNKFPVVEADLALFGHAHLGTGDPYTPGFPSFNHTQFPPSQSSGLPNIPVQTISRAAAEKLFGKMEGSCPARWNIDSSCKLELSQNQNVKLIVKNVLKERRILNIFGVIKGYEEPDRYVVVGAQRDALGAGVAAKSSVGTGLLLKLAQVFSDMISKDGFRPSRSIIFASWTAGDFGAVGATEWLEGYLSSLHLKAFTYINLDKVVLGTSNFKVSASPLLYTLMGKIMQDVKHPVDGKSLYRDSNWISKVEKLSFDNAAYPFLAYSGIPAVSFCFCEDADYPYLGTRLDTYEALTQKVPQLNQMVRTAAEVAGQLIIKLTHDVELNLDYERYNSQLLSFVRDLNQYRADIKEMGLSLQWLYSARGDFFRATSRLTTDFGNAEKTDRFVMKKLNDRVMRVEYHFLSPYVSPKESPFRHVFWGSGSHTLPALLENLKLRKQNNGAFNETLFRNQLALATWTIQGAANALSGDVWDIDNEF
Description: indirect ELISA: plate coated with 1 µg/ml h/m helical domain chimera, mouse IgG titrated, anti-mouse IgG-HRP; x axis printed as 'TfR (ng/ml)'. The method, then: as §1

In assay [3] the target is T3, AβpE3-40 monomer (UniProt P05067 674-711, pyroglutamate at position 3 (N-terminal residue)). Description: cell-based or functional assay.
T3 sequence (P05067 674-711): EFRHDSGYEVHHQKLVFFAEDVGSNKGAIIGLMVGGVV
In assay [4] the target is T4, truncated cTfR1 of SEQ ID NO:123 (cynomolgus monkey, UniProt Q5RDH6 122-760 (Pongo abelii entry)).
T4 construct: also called cynomolgus TfR1
T4 chain: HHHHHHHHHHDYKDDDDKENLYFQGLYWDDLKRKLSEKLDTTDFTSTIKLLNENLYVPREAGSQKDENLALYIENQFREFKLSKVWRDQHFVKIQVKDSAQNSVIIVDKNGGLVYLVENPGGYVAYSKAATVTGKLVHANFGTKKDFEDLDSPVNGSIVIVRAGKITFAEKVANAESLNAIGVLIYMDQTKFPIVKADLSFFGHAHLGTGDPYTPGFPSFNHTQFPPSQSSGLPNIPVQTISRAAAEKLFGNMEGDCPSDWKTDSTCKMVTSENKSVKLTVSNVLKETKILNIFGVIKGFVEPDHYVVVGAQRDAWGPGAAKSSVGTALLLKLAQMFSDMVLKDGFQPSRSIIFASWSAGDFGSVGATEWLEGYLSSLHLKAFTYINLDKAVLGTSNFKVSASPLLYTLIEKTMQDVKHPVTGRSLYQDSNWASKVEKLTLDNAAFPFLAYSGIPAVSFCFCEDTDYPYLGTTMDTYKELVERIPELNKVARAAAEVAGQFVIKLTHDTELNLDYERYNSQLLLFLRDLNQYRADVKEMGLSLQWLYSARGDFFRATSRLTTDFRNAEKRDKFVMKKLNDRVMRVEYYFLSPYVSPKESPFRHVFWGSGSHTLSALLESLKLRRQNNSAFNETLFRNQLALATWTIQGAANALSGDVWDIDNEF
Description: SPR, FLAG-captured TfR1, bispecific injected, 1:1 fit. On the procedure: (§2) Binding of the purified bispecific binding molecules produced in Example 47 to human and cynomolgus TfR1 was evaluated using SPR on a Biacore 8K instrument (Cytiva). […] The interaction was measured using the single cycle kinetics method with a contact time of 120 s at a flow rate of 30 μl/min followed by a dissociation time of 600 s. Regeneration of the surface between cycles was done by injecting 10 mM glycine-HCl, pH 1.7. The binding data was fitted to a 1:1 interaction model. The tested molecules were diluted in HBS-EP+ (Cytiva, #BR100669). Experiments were performed at 25° C.

In assay [5] the target is T5, truncated hTfR1 of SEQ ID NO:122 (human, UniProt P02786 122-760).
T5 construct: also called human TfR1; Human TfR1
Described as above. The method, then: as §2

Assay [6] has as its target T3, AβpE3-40 monomer. Description: SPR, antibody immobilised, monomer injected, 1:1 fit. On the procedure:
Single cycle kinetics with the binding molecules immobilized on a CM5 chip was used to measure binding to the AβpE3-40 monomer. For the measurements, 5 μg/ml of analyte binding molecule was immobilized on the chip. […] Regeneration of the surface between cycles was done by injecting 30 μl 3 M MgCl₂ (Cytiva, cat. No. 29234600). The binding data was fitted to a 1:1 interaction model.
A general note: Surface plasmon resonance follows binding to a sensor surface in real time, without labels.

In assay [7] the target is T3, AβpE3-40 monomer. Described as above. The source holds these as a separate data set.
In assay [8] the target is T5, truncated hTfR1 of SEQ ID NO:122. Description: SPR, FLAG-captured TfR1, bispecific injected, 1:1 fit. This is another data set of the same source.
For the next assay, the target named is T6, AβpE3-42 protofibrils (UniProt P05067 674-713, pyroglutamate at position 3 (N-terminal residue)).
T6 construct: range 3-42 (Aβ numbering); Soluble aggregates made from AβpE3-42 peptide, purified in the void peak of SEC; also called AβpE3-42 PF
T6 sequence (P05067 674-713): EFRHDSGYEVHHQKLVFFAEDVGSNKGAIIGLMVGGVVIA
Description: inhibition ELISA, antigen titrated in solution, AβpE3-40 coat. On the procedure:
(§3) The tested molecules were incubated at a fixed concentration (0.1 μg/ml) with titrating concentrations of the different AβpE3 antigens. After incubation for 45 min at 900 rpm to reach equilibrium, the samples were added to a blocked and washed ELISA plate with an AβpE3-40 coat (0.5 μM). The samples were incubated on the plate for 25 min without shaking followed by washing, incubation with detection antibody, another washing step and finally incubation with alkaline phosphatase substrate.

Assay [9] concerns the target T3, AβpE3-40 monomer. The description is as above. On the procedure: as §3

Like-named read-outs stand apart in the source and are kept apart here.

B1: 24B4 (antibody, V domains shown)
VH: EVQLQQFGAELVKPGTSVKISCKASGYTFTDYNMDWVKQGHGKGLEWIGDINPNYDTTSYSQKFKGKATLTVDKSSSTAYMELRSLTSEDTAVYYCARSEAGNYYWYFDVWGAGTTVTVSS
VL: DIVMSQSPSSLAVSVGEKVTMSCKSSQSLLYSSNRKNYLAWYRQKPGQSPKLLIYWASTRESGVPDRFTGSGSGTDFTLTISSVKAEDLAVYSCQQYYNYPYTFGGGTKLEIK
notes: also called mouse antibody 24B4; clone 24B4
For the molecule B1, the binding result in [1] and in [2] was “no binding (tested: about 600 ng/ml)” in each case.

B2: BA001 (bispecific antibody, human IgG1, kappa)
light: EIVLTQSPLSLSVTLGQSASISCRSSQSLLDSNGKTYLHWFILRPGQSPRRLIYLVSILDSGVPDRFSGSGSGTDFTLKISRVEAEDVGVYYCVQGTHFPFTFGSGTKLEIKRTVAAPSVFIFPPSDEQLKSGTASVVCLLNNFYPREAKVQWKVDNALQSGNSQESVTEQDSKDSTYSLSSTLTLSKADYEKHKVYACEVTHQGLSSPVTKSFNRGEC
heavy 1: not shown
heavy 2: EVQLVQSGAEVVKPGASVRLSCKASGYSFTGFTMNWVRQALGQGLEWMGLINPYNGVTTYNQKFKGRLTMTRDMSTRTVYMDLSSLTYEDTAVYYCTREGNWEGVYWGQGTLVTVSSASTKGPSVFPLAPSSKSTSGGTAALGCLVKDYFPEPVTVSWNSGALTSGVHTFPAVLQSSGLYSLSSVVTVPSSSLGTQTYICNVNHKPSNTKVDKKVEPKSCDKTHTCPPCPAPELLGGPSVFLFPPKPKDTLMISRTPEVTCVVVDVSHEDPEVKFNWYVDGVEVHNAKTKPREEQYNSTYRVVSVLTVLHQDWLNGKEYKCAVSNKALPAPIEKTISKAKGQPREPQVYTLPPCRDELTKNQVSLWCLVKGFYPSDIAVEWESNGQPENNYKTTPPVLDSDGSFFLYSKLTVDKSRWQQGNVFSCSVMHEALHNHYTQKSLSLSPGGGGGSGGGGSGGGGSGGGGSDIQMTQSPSSVSASVGDRVTITCKSSQSLLYSTNQKNYLAWYQQKPGKAPKLLIYWASTRESGVPSRFSGSGSGTDFTLTISSLQPEDFATYYCQQYFIYPRTFGCGTKVEIKGGGGSGGGGSGGGGSGGGGSEVQLVQSGAEVKKPGSSVKVSCKASGYIFTDYNMDWVRQAPGQCLEWIGDINPDADTTSYNEKFKGRATLTVDKSTSTAYMELSSLRSEDTAVYYCARGGYSGSSYYHPMDYWGQGTLVTVSS
As usually defined, the Kd is a measure of binding affinity in units of concentration. As usually defined, the koff is a measure of how fast the partners let go of each other. High values mean fast dissociation, low ones slow dissociation. The kon is the second-order rate constant of association. Lower therefore signals slow association. By IC50 is commonly meant the midpoint of a concentration-inhibition curve. As to B2, the “Uptake of AβpE3-40 monomers in THP-1 cells, EC50” value with AβpE3-40 monomer [3] was determined as 2 nM. In addition, the Kd in assay [4] stood at 525 nM; in assay [5], 190 nM; with AβpE3-40 monomer [6], 2.17 nM; with AβpE3-40 monomer [7] it was 2.1 nM; in assay [8], 174 nM. The koff stood at 0.01 s⁻¹ in assay [4]; 0.0042 s⁻¹ in [5]; 0.00012 s⁻¹ with AβpE3-40 monomer [6]; 0.00011 s⁻¹ in the assay with AβpE3-40 monomer [7]; 0.0038 s⁻¹ in assay [8]. Further, the kon amounted to 19000 M⁻¹ s⁻¹ in assay [4]; 22000 M⁻¹ s⁻¹ in assay [5]; 55800 M⁻¹ s⁻¹ with AβpE3-40 monomer [6]; 54000 M⁻¹ s⁻¹ with AβpE3-40 monomer [7]; 22000 M⁻¹ s⁻¹ in assay [8]. For the same molecule, the IC50 worked out at 3.1 nM with AβpE3-42 protofibrils and 1.1 nM with AβpE3-40 monomer [9].
